Test results published in IntAct's records for PubMed 33990585.

B1: Mitochondrial import receptor subunit TOM70 (Homo sapiens), O94826 (parent)
chain: MAASKPVEAAVVAAAVPSSGSGVGGGGTAGPGTGGLPRWQLALAVGAPLLLGAGAIYLWSRQQRRREARGRGDASGLKRNSERKTPEGRASPAPGSGHPEGPGAHLDMNSLDRAQAAKNKGNKYFKAGKYEQAIQCYTEAISLCPTEKNVDLSTFYQNRAAAFEQLQKWKEVAQDCTKAVELNPKYVKALFRRAKAHEKLDNKKECLEDVTAVCILEGFQNQQSMLLADKVLKLLGKEKAKEKYKNREPLMPSPQFIKSYFSSFTDDIISQPMLKGEKSDEDKDKEGEALEVKENSGYLKAKQYMEEENYDKIISECSKEIDAEGKYMAEALLLRATFYLLIGNANAAKPDLDKVISLKEANVKLRANALIKRGSMYMQQQQPLLSTQDFNMAADIDPQNADVYHHRGQLKILLDQVEEAVADFDECIRLRPESALAQAQKCFALYRQAYTGNNSSQIQAAMKGFEEVIKKFPRCAEGYALYAQALTDQQQFGKADEMYDKCIDLEPDNATTYVHKGLLQLQWKQDLDRGLELISKAIEIDNKCDFAYETMGTIEVQRGNMEKAIDMFNKAINLAKSEMEMAHLYSLCDAAHAQTEVAKKYGLKPPTL

Variants of: B1
Conditions: with orf9b_sars2 orf9b

With E477A as the variant, how does the “effect of a mutation on the interaction” value read?
The value was “decreasing interaction strength”.

For D545A, which “effect of a mutation on the interaction” value is on record?
Its value is “decreasing interaction strength”.

With E549A as the variant, how does the “effect of a mutation on the interaction” value read?
The value was “decreasing interaction strength”.

Which “effect of a mutation on the interaction” value does the source give for E549I here?
The value was “decreasing interaction strength”.

Which “effect of a mutation on the interaction” value does the source give for H583Q here?
The value was “with no effect”.
